Patent US20200239537A1
Where no end group is shown, it is not given here. [ ]: non-standard residue; d: D form. Phe(4-Br) = N[C@@H](Cc1ccc(Br)cc1)C(=O)O; pGlu = O=C1CC[C@@H](C(=O)O)N1; Nle = CCCC[C@H](N)C(=O)O; Aib = CC(C)(N)C(=O)O

What follows are binders tested against wild-type rat apelin receptor tagged at its C-terminus with EGFP (rat) (UniProt Q9JHG3) (assay: displacement of 0.2 nM [125I]-pyr-1-apelin-13; membranes of CHO cells expressing rat apelin receptor-EGFP).
Chain of wild-type rat apelin receptor tagged at its C-terminus with EGFP (rat) (Q9JHG3 whole entry): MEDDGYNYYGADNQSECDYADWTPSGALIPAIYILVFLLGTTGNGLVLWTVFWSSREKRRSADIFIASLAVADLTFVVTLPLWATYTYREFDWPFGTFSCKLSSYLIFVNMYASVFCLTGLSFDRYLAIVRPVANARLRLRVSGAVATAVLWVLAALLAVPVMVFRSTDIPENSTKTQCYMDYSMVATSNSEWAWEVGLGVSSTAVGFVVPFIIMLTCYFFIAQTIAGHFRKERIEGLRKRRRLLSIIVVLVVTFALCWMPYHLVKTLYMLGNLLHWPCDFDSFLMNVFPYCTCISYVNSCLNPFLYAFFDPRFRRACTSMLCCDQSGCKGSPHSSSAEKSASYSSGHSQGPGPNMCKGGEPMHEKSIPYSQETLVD

**Q.** With XRPRXSHKGPXXX (pGlu at 1; azaLeu at 5; Nle at 11; Aib at 12; paraBrPhe at 13) [azaLeu5-pyr-1-apelin-13 A2 (18)] as the binder, how does the Ki read?
**A.** The Ki was 0.13 nM.

**Q.** With [pGlu]RP[azaArg]LSHKGP[Nle][Aib][Phe(4-Br)] [azaArg4-pyr-1-apelin-13 A2 (16)] as the binder, how does the Ki read?
**A.** The Ki was 1 nM.

**Q.** What about the factor of weaker affinity compared to 1 of the same binder?
**A.** The factor of weaker affinity compared to 1 was 3 fold.

**Q.** XRPRXSHKGPXXX (pGlu at 1; NMeLeu at 5; Nle at 11; Aib at 12; paraBrPhe at 13) [N-MeLeu5-pyr-1-apelin-13 A2 (10)] was tested. Which Ki did it give?
**A.** The Ki was 0.1 nM.

**Q.** For XRPRXSHKGPXXX (pGlu at 1; D-Leu at 5; Nle at 11; Aib at 12; paraBrPhe at 13) [D-Leu5-pyr-1-apelin-13 A2 (8)], which Ki is on record?
**A.** The Ki was 0.12 nM.

**Q.** How did the Ki turn out when XRPXLSHKGPXXX (pGlu at 1; αMeArg at 4; Nle at 11; Aib at 12; paraBrPhe at 13) [α-MeArg4-pyr-1-apelin-13 A2 (12)] was run?
**A.** Its Ki is 0.56 nM.

**Q.** What about the factor of weaker affinity compared to 1 of the same binder?
**A.** Its factor of weaker affinity compared to 1 is 2 fold.

**Q.** XRPRXSHKGPXXX (pGlu at 1; αMeLeu at 5; Nle at 11; Aib at 12; paraBrPhe at 13) [α-MeLeu5-pyr-1-apelin-13 A2 (14)] was tested. Which Ki did it give?
**A.** The Ki was 0.17 nM.
